Laboratory results from patent US10808017B2, “Ubiquitin variants and uses therof as 53BP1 inhibitors” (The Governing Council of the University of Toronto, priority 2016, dated 2020).

Key:
HIST1H2BG = target: T1, HIST1H2BG (Homo sapiens, UniProt P62807); test: Flag IP-MS of i53/i53-DM baits: prey HIST1H2BG; type: binding; conditions: 293T Flp-In/T-Rex extracts, LC-MS/MS, one column per replicate IP
T1 construct: endogenous in cells; host or cells: HEK293 Flp-In/T-REx
Description: Following immunoprecipitation of Flag-tagged i53 and i-53-DM from HEK293 Flp-In/T-REx cells, peptides were identified using LC-MS/MS. Proteins were digested in solution with trypsin (Sigma, T7575-1KT) and dried to completeness. For LC-MS/MS analysis, peptides were reconstituted in 5% formic acid and loaded onto a 12-15 cm fused silica column with pulled tip packed in-house with 3.5 μm Zorbax C18 (Agilent Technologies, Calif., USA).
i53 and i53-DM precipitates were analyzed using an LTQ (Thermo Scientific) coupled to an Agilent 1100 Series HPLC (Agilent Technologies). Peptides were eluted from the column using a 90 min period cycle with a linear gradient from 0% to 40% ACN in 0.1% formic acid. Tandem MS spectra were acquired in a data-dependent mode for the top 5 (LTQ) most abundant ions using collision-induced dissociation. Acquired spectra were searched against the human Refseq_V53 database using Mascot (Matrix Science).
293T Flp-In/T-Rex cell lines were generated that expressed Flag-tagged i53 or i53-DM under the control of a tetracycline-inducible promoter as previously described. Nine IP-MS experiments were analyzed (3 biological replicate IPs each for control i53- and i53-DM expressing cell lines). The interacting proteins were identified by MASCOT to identify high-confidence interactors for i53. […]

[1] = test system: BRCA1-deficient RPE1-hTERT cells; test: Olaparib sensitivity assay; type: cell-based; conditions: viral delivery of HA-tagged i53; compared to genetic deletion of 53BP1; Trypan blue viable count
From the text: FIG. 9 Expression of i53 suppresses PARP inhibitor sensitivity of BRCA1-deficience cells. FIG. 9A, An isogenic set of cell lines derived from RPE 1-hTERT cells deleted for the gene coding for p53 (TP53Δ) containing either no further mutations (WT) or null mutations in BRCA1 (BRCA1Δ) or 53BP1 (53BP1Δ) alone or in combination, as indicated. These cell lines were transduced either with an empty virus (EV) or with lentiviruses that express HA-tagged i53 or its DM mutant. The virus also expressed GFP from an IRES. After sorting for GFP cells the viability of cells following olaparib treatment for […] was monitored by trypan blue exclusion. Data is presented as the mean +/− s.d. (N=3). FIG. 9B , Whole-cell extracts from the isogenic sets of RPE1-hTERT TP53Δ cells were separated by SDS page and probed by immunoblotting with the indicated antibodies. FIG. 9C , Expression of the HA-tagged Ubvs in the indicated RPE1-hTERT TP53Δ cell lines was determined by anti-HA immunoprecipitation (IP) followed by immunoblotting.
RPE1 hTERT cells were obtained from ATTC and maintained in DMEM +10% FCS. […]
Cells were seeded at a density of 20,000 cells/well in 6-well plates in the presence of olaparib at day 0. […] At day 6, cells were collected by trypsinization and viable cell count was determined by Trypan blue exclusion using an automated cell counter (Vi-CELL, Beckman Coulter).

i53: UbvG08 with C-terminal di-glycine removed and I44A mutation; genetically encoded inhibitor of 53BP1
Total peptides, HIST1H2BG (HIST1H2BG): 4 | Alleviation of PARP inhibitor (olaparib) sensitivity [1]: only partially alleviated
